From the nanobody polyreactivity screen of Harvey et al. (2022)

Assay: yeast display, Sf9 membrane polyspecificity reagent, FACS + sequencing; frameworks hold sequencing errors
Method in brief: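 Genes from sorted yeast were amplified by colony PCR, read by MiSeq 2 × 250 sequencing and filtered on CDR length. These cells carried a synthetic nanobody library in Saccharomyces cerevisiae BJ5465 and were sorted by FACS into low and high (top ~1%) gates on anti-HA and streptavidin fluorescence. Polyreactivity is labelled according to the gate of origin.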

Sequence	polyreactivity (PSR sort gate)
QVQLVESGGGLVQAGGSLRLSCAASGSILVHYAMGWYRPAPGKEWELVAAISSVGSTNYADSVKGRFTMTRDNAKNTVYLQMNSLKPEDTAVYYCAARASRWYIAVDYWRQGTQVTVSS	low polyreactivity
QVQLVESGGGLVQAGGSLRLSCAASGITYEGYAMGWNRKAPGKERELVAAIRSSGTSTYYADSVKGRFTISRDNAKNSVYLQMNSLKPEDTAVYYCNRARSSSRYDYWGQGTQVTVSS	low polyreactivity
QVQLVESGGGLVQAGGSLRLSCAASGRTLYWYAMGWYRQAPGKERQLVAVISGSGASTYYADSVKGRFTISRDNAKNTVYLQMNSLKPEDTAVYYCNARDYRRYGRYHWQDYDYWGQGTQVTVSS	high polyreactivity
QVQLVESGGGLVHAGGSLRLSCAASGSTFSWYVMGWYRQAPGKERELVAAISYRGGRTYYADSVKGRFTISRDNAKNTVYLQMNSLKPEDTAVYYCAARGVVDAGRTNRPYDYWGQGTQVTVSS	low polyreactivity
QVQLVESGGGLVQAGGSLRLSCAASGRILGKYAMGWYRQAPGKERELVAAIRLRGGSPYYADSVKGRFTISRDNAKNTVYLQMNSLKPDDTAVYYCAARYWDRSQAYNYWGQGTQVTVSS	high polyreactivity
QVQLVESAGGLVQAGGSLRLSCPASGGISALYAMGWYRQAPGKERELVAAISASGGSTYYADSVKGRFTISRDNAKNTVYLQMNSLKPEDTAVYYCNVAVLTSDIYSTTIYYYGIYDYWGQGTQVTVSS	high polyreactivity
QVQLVESGGGLVQAGGSLRLSCAASGSIFFSYAMGWYRQAPGKERELVATITTSGGRTRYADSVKGRFTISRDNAKNTVYLQMNSLKPEETAVYYCAAAPWDAPWSGYEYWGQGTQVTVSS	high polyreactivity
KVQLVDSGGGLVQAGGSLRLSCAASGSTSKCYAMGWYRPEPGKERELVAAITKTGGRTYYADSVKGRFTISRDNAKNTVYLQMNSLKPEDTADYYCAVEYLRGFIVIYDYWGQGTQVTVTS	high polyreactivity
QVQLVESAGGLVQAGGSLRLSCAASGSNFGDYPLGWYRQAPGKERELVAAISVRGGSTYYADSVKGRFTISRDNAKITVYLQMKSLKPEDTAVYYCNKDLYRYPGYDYWGHGTQVTVSS	high polyreactivity
QVQLVESGGGLVQAGGSLRLSCAASGSTFRGYAMGWYRQAPGKERELVAAIISDGTTNYADSVKGRFTISRDNAQTTVYLQMNSLKPEDTAVYYCNAEVQGGRPQFDYWGQGTQVTVSS	low polyreactivity
QVQLQESGGGLVQSGGSLRLSCAASGFIFARNYMGWYRQAPGKERELVAGIGVGASTNYADSVKGRFTISRDNAKNTVYLQMNSLKPEDTAVYYCNARTGTTWQGYEYDYWGQGTQVTVSS	low polyreactivity
QVQLVESGGGLVQAGGSLRLSCAASAGTFWNAMGWYRQAPGKERELVATITSGSSTNYADSVKGRFTISRDNAKNTVYLQMNSLKPEDTAVYYCNARTIPWPYIVSYDYWGQGTQVTVSS	high polyreactivity
QVQLVESGGGLVQAGGSLRLSCAASGRIFPFYAMGWYIQAPGKERELVAAISRSGRTNYADSVKGRFTISRDNAKNTVFLQMNSLKPEDTAVYYCNADYYLFDFDSWGQGTQVTVSS	low polyreactivity
QVQLVESGGGLVQAGGSLRLRCAASGRIFTRNDIGWYRQAPGKERQLVAAISHSGGSTYADSVKGSFTISRDNAKNTVFLQMNRLKPEDTEVYYCAADSPYGYYEGDYWGQGTQVTVSS	low polyreactivity
QVQLVESGVGLVQAGGSLRLSCAASGSIFSPNAMVWSRQAPGKERELVAAITWSGDSTYYADSVKGRFTISRDNAKNTVYLQINSLKREDTEVYYCAADFTYQGSSANDYWGQGSQVTVSS	low polyreactivity
QVQLVESGGGLVQAGGSLRLSCDASGFTLEKNAMGWYRQAPGKERELVADISSTDSTNYADSVKGRFTISRDNAKNTVYIQMNSLKPEDTAVYYCGRYDGPGTEEFDYWGQGTQVTVSS	low polyreactivity

Sequence	polyreactivity (PSR sort gate)
QVQLVESGGGLVQAGGSLRSSCAATGRTFYYNGMGWYRQAPGKERELVATITNGGSTNYADSVKGRFTISRDNAKNTVYLQMNSLKPEDTAVSYCAKTLASDCYDYWGQGTQVTVSS	low polyreactivity
QVQLVESGGGLVQAGGSLRLSCAASGSTFYYYAMGWYRQAPGKERELVAAISVSGASKYYADSVKGRFTISRDNAKNTVYLQMNSLKPEDTAVYYCAADEGYPGDGDYWGQGTQVTVSS	low polyreactivity
QVQLVESGGGLVQAGGSLRLSCAASGFIFYGNAMGWYRQAPGKERELVAAITRRGGRTYYADSVKGRFTISRDNAKNTVYLQMNSLKPEDTAVYYCAKDRGRSLEMDYWGQGTQVTVSS	high polyreactivity
QVQLVESGGGLVQAGGSLRLSCAASGRTFAIYAMGWYRQAPGKERELVASISSSGDRTYYADSVKGRFTISRDNAKNTVYLQMNSLKPEDTAVYYCAARWRYTYYYWGQGTQVTVSS	high polyreactivity
QVQLVESGGGLVQAGGSLRLSCAASGFIITSYAMGWYRQAPGKERELVAAIRRTGGTYYADSVKGRFTISRDNAKNTVYLQMNSLKPEDTAVYYCNTRLSYRNRGFDYWGQGTQVTVSS	high polyreactivity
QVQLVESGGGLVQAGGSLRLSCAASGSIFDENAMGWYRQAPGKERELVAAITSTDSTNYADSVKGRFTISRDNAKNTVYLQMNSLKPEDTAVYYCARDIKHATSYEALYYSDYDYWGQGTQVTVSS	low polyreactivity
QVQLQESGGGLMQAGGNLRLSCAASGYISTNDDMDWYRQAPGKERELVARIDDGAITNYADSVKGRFTISRDNAKKTVYLQMNSLKPEDTAVYYFAVYSGDDYYHDYWGQGTQVTVSS	low polyreactivity
QVQLVESGGGLVQAGGSLRLSCAASGFIFIAYAMGWYRQAPGKERELVAAISKSGGNTYYADSVKGRFTISRDNAKNTVYLQMNSLKPEDTAVYYCATRPGYWRYEYWGQGTQVTVSS	high polyreactivity
QVQLVDSGGGLVQAGGSLRLSCAPSGYIFPYNAMGWYRQAPGKEREFVAAITSSGGSTYYADSVKGRFTISRENAKNTVYLQMNSLKPEDTAVYYCARVPLHRYGYWGQGTQVNVSS	high polyreactivity
QVHLEESGGCLVQAGGSLRLSCAASGLFARNAMGWYRQAPGKERELVAAINRSGGSTYYADSVKGPFTISRDNAKNTVYLQMKSLKPEDTAVYYCNQAFTHTKDLSPIAYEYVFWGQGTQVTVSS	low polyreactivity
QVQLEVSGGGLVQAGRSLRLSCAASGSTFYGYAMGWYRQAPGKERELVAAITSSGGSTYYADSVKGRFTISRDNAKNTVYLQMNSLKPEDTAVYYCNAKRAPWGTLYNYWGQGTQVTVSS	high polyreactivity
QVQLVESGGGLVQAGGSLRLSCAASGSIFGWNAMGWYRQAPGKERELVAAINWTGGTTYYADSVKGRFTISRDNEKNTVYLQMNSLKPEDTAVYYCAARLTYHVAGQMTRYYYWGQGTQVTVSS	low polyreactivity
HVQRVDSGAGLVQPRCSLRISCAASGNTFKQYAMGWYRQAPGKDRELVAAIRRSGSTYYADSVKGRFTISRDNAKYTVYLEMNSLKPEDPAVYYCNARIYRLYSTYSWTRYDYWGQGTQVTVSS	high polyreactivity
QVQLVESGGGLVQAGGSLRLSCAASGITFSGYDMGWYRQAPGKERELVADITISTGSTYYADSVKGRFTISRDNAKNTVYLQMNSLKPEDTAVYYCAADWQQDRTVVLPSWGHAYDSWGQGTQVTVSS	low polyreactivity
QVQLVESGGGLVQAGGSLRLSCAASGIIFFRYAMGWYRQAPGKEREWVAGISGSGGSTYYADSVKGRFTMSRDNAKNTVYLQMNSLKPEDTAVYYCAKRYYRPVPGGYYWGQGTQVTVSS	high polyreactivity
QVQLVESGGGLVQAGGSLRLSCAASGSTFTDYDMGWYRQAPGKERELVAAITSGGSTNYADSVKGRCTISRDNAKNTVYLQMNRLKPEDTAVYYWAAADADSKYDYWGQGTQVTVSS	low polyreactivity
